# Patent US11098109B2, “Single-chain variable fragment anti-CD133 antibodies and uses thereof” (REGENTS OF THE UNIVERSITY OF MINNESOTA, priority 2010, dated 2021)
# T1: CD133 (Homo sapiens, UniProt O43490)
# T1 construct: endogenous in cells
# T1 sequence (O43490 20-865): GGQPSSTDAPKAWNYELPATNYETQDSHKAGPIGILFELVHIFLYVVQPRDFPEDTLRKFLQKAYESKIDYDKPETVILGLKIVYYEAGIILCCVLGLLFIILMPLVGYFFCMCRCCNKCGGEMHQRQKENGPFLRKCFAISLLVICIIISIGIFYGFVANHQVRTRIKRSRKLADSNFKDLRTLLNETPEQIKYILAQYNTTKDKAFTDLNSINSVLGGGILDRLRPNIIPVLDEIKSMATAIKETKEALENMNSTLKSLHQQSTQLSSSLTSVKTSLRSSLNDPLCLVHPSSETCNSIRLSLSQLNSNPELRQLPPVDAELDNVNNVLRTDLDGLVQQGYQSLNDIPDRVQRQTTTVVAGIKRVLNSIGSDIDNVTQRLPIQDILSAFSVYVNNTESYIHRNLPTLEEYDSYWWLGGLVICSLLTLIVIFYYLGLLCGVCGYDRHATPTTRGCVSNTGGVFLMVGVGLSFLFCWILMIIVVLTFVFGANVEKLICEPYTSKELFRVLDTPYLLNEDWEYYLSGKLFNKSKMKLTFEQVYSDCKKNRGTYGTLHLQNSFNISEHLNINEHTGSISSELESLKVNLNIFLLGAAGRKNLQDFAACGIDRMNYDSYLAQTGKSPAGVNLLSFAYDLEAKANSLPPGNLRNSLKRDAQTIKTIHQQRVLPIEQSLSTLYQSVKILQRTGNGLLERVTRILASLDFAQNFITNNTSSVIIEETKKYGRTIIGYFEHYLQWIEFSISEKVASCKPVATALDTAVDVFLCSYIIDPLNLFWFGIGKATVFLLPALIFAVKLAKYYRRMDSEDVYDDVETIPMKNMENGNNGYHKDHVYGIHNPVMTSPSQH
# B1: Hybridoma Clone 7: monoclonal antibody produced by Hybridoma Clone 7 that specifically binds to human CD133 (antibody, V domains shown)
# VL: DIVLSQSPAIMSASPGEKVTISCSASSSVSYMYWYQQKPGSSPKPWIYRTSNLASGVPARFSGSGSGTSYSLTISSMEAEDAATYYCQQYHSYPPTFGAGTKLELK
# VH: LEVKLVESGPELKKPGETVKISCKASGYTFTDYSMHWVNQAPGKGLKWMGWINTETGEPSYADDFKGRFAFSLETSASTAYLQINNLKNEDTATYFCATDYGDYFDYWGQGTTLTVSS
# Assays:
# [1] = target: T1, CD133; test: Flow cytometry specificity test on U87, CD133-transfected U87, Caco-2 and GBM6 cells; type: binding
# Protocol: FIG. 3: Specificity of antibody produced by Hybridoma Clone 7. (A) Flow cytometry. Cells were incubated with primary antibody from either Hybridoma Clone 7 or 293C3 (Militenyi), followed by incubation with a labeled secondary antibody, and then analyzed by flow cytometry. Antibody from the newly developed anti-CD133 Hybridoma Clone 7 (open black histogram) stains very specifically the CD133-overexpressing cells, Caco-2 (iii), GBM6 (iv) and U87 cells transfected with CD133 (ii) but not CD133 negative U87 cells (i). Immunostaining using the monoclonal antibody produced by Hybridoma Clone 7 is compared to clone 293C3 (open grey histogram). Isotype control is represented by solid grey histogram. (B) Tunicamycin mediated glycosylation inhibition. Caco-2 cells were treated with increasing doses of tunicamycin (2.5, 5, 10, 20 μg/ml) for 3 days. DMSO treated cells or untreated cells served as controls. Cells were lysed and then analyzed by Western blotting using the monoclonal antibody produced by Hybridoma Clone 7 or GAPDH antibodies.
# CD133-IRES GFP or CMV GFP constructs were transfected into U87 cells using FuGENE HD transfection reagent according to the manufacturer's instructions. Briefly, cells were plated in a 10 cm dish. Twelve hours later, 10 μg of the pDNA was diluted in serum-free growth DMEM and mixed with 40 μl of the transfection reagent. Following incubation for 15 minutes, the transfection mix was added to the cells. Forty-eight hours later, cells were harvested using non-enzymatic cell dissociation buffer (Sigma-Aldrich Corp., St. Louis, Mo.) for flow cytometry.
# Primary human glioblastoma GBM6 cells, U87, or Caco-2 cells were washed three times and suspended in 100 μl of PBS. […] Cells were further incubated with 10 μl of anti-mouse hylite 647 (1:40 dilution; American Qualex, San Clemente, Calif.) for 30 minutes at 4° C., washed three times, and analyzed by flow cytometry.
# [2] = target: T1, CD133; test: Western blot screening of hybridoma supernatants on Caco-2 lysates; type: binding; conditions: CD133^+ Caco-2 cell lysates
# Protocol: FIG. 2: Analysis of the newly generated CD133 hybridoma. Supematants of hybridoma clones were tested as a primary antibody in western blot (A) and Immunofluorescence (B) assays. Pre-immunized serum (-ve) or post immune anti sera (a.s.) served as controls. For western blot, Caco-2 lysates normalized for protein concentration were loaded onto a SDS-PAGE gel, resolved, blotted onto a nitrocellulose membrane and cut into strips. Each strip was probed with supernatant from the identified hybridoma. Membrane in Lane 1 was probed with a commercially available antibody (ab 19898, Abcam) and served as an additional positive control. For immunofluorescence, Caco-2 cells were fixed and immunostained with the hybridoma supernatants. A commercially available antibody (293C3, Militenyi) was used as additional positive control. Scale bars in the panel represent 200 micrometers. Supernatant of Hybridoma Clone 7 was used in the immunohistochemical analysis of primary glioblastoma and kidney tissue (C).
# Caco-2 cells were lysed in RIPA buffer (Thermo Scientific, Waltham. Mass.) and centrifuged at 10,000 rpm and 4° C. to remove debris. The protein concentration of cell lysates was measured using BCA protein assay kit (Thermo Scientific, Waltham, Mass.), with bovine serum albumin as the standard. […]
molecule,measurement,setting,value
B1,flow cytometry staining of non-transfected U87 cells,[1]; CD133^low/- U87 cells,did not appreciably stain
same,flow cytometry staining of cells that endogenously express CD133,[1]; Caco-2 and GBM6 cells,able to immunostain
same,flow cytometry staining of CD133-transfected U87 cells,[1]; U87 transfected with human CD133 cDNA,labeled CD133-transfected cells
same,Western blot band with hybridoma supernatant,[2],distinct band corresponding to the predicted molecular weight of CD133
